Laboratory results from the nanobody polyreactivity screen of Harvey et al. (2022).

Experiment: yeast display, Sf9 membrane polyspecificity reagent, FACS + sequencing; frameworks hold sequencing errors
Outline: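 A synthetic nanobody library was expressed on Saccharomyces cerevisiae BJ5465 by galactose induction for 36–48 hours. The library was stained for 1 hour at 4 °C with 10% biotinylated, detergent-solubilized Sf9 membrane reagent and enriched with streptavidin microbeads before FACS. Low and high (top ~1%) gates were set on anti-HA fluorescence for expression and streptavidin fluorescence for reagent binding, and each polyreactivity label reflects the gate of origin.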
With “QVQLVDSGGGLVQAGGSLRLSCAASGSIFPKNAMGWYRPAPGKERELVAAISSGGGGTYYADSVKGRFTISRDNAKNTVYLQMNSLKPEDTAVFYCNKRDGNGGNTKYDYWGQGTQVTVSS” the “polyreactivity (PSR sort gate)” value was “low polyreactivity”. In the case of “QVQLVDSGGGLVQAGGSLRLSCAASGSIFRRNAMGWYRQAPGKERELVAAITRSGSGTSYADSVKGRFTISLDNAKNTVYLQMNSLKPEDTAVYYCNAAYVYGDQARGGYWGQGTQVTVSS”, the “polyreactivity (PSR sort gate)” value is reported as “high polyreactivity”. In the case of “QVQLVDSGGGLVQAGGSLRLSCAASGSIFTDNAMGWYIQAPGKERDLVAAITGRGGNTYYADSLKGRFPISRDNAKNTVYLQMNSLKPEDTAVYYCAARIFRTRKPLGYWGQGTQVTVSS”, the “polyreactivity (PSR sort gate)” value is reported as “high polyreactivity”. For “QVQLVDSGGGLVQAGGSLRLSCAASGSIFVKYAMGWYRQAPGKERELVAAISWRGGSTYYADSVKGRFTISRDNAKNTVYLQMNSLKPEDTAVYYCAKYPGISGYNYWGQGTQVTVSS”, the “polyreactivity (PSR sort gate)” value was “high polyreactivity”. In the case of “QVQLVDSGGGLVQAGGSLRLSCAASGSIFWIYSMGWYRQAPGKERELVATISRGGSTYADSVKGRFTISRDNAKNTVYLQMNSLKPEDTPVYYCAARAFAGNQQAYYYWGQGTQVTVSS”, the “polyreactivity (PSR sort gate)” value is reported as “high polyreactivity”. With “QVQLVDSGGGLVQAGGSLRLSCAASGSIILVNAMGWYRQAPGKEREFVAAISTSSGSTYYADSVKGRFTISRDNAKNTVYLQMNSLKPEDTAVYYCAADEVYSRGIWPVEDDYWGQGSQVTVSS” the “polyreactivity (PSR sort gate)” value was “low polyreactivity”. In the case of “QVQLVDSGGGLVQAGGSLRLSCAASGSILGGNAMGWYRQAPGKERELVAAITFSGGGTYYADSVKGRFTISRDHAKNTVYLQMNSLKPEDTAVYYCAADKDGYTYEFDYWGQGTQVTVSS”, the “polyreactivity (PSR sort gate)” value is reported as “low polyreactivity”. With “QVQLVDSGGGLVQAGGSLRLSCAASGSILNNYAMGWYRQARGKERELVAAISSSGGTNYADSVKGRFTISRDNAKNTVYLQMNSLKPEDTAVYYCYADVLDGGYDYWGQGTQVTESS” the “polyreactivity (PSR sort gate)” value was “low polyreactivity”. For “QVQLVDSGGGLVQAGGSLRLSCAASGSIYSSYAMGWYRQAPGKERELVASISSGGSKNYADSVKGRFTISRVNAKNTVYLQMNSLKPEDTAFYYCNVDLYNWRGDYTGYDYWGQGTQVTVSS”, the “polyreactivity (PSR sort gate)” value was “low polyreactivity”. In the case of “QVQLVDSGGGLVQAGGSLRLSCAASGSPFTTYAMGWYRQAPGTERELVAAISTNGGRTFYSDSVKGRFTISRDNAKNSVYLQMNSLKPEDTALYYCAAEYDLYAPGYYYWGEGTQVTVSS”, the “polyreactivity (PSR sort gate)” value is reported as “low polyreactivity”. For “QVQLVDSGGGLVQAGGSLRLSCAASGSTCYYYNMGWYRQSPWKERELVAAISFIGGSTYYADSVKGRFTISRDNAKYTVYLQMNSLTPEDTAVFYCAAEFYRWGSLSFSNDYWGQGTQVTVSS”, the “polyreactivity (PSR sort gate)” value was “low polyreactivity”. For “QVQLVDSGGGLVQAGGSLRLSCAASGSTFLYHAMGWYRQAPGKERELLAAINSGTSTTYADSVKGRFTISRDNAKNRVYLQMNSLNPEDTAVYYCAADYYYVNYYGYYTLFDFDYWGQGTQVTVSS”, the “polyreactivity (PSR sort gate)” value was “low polyreactivity”. For “QVQLVDSGGGLVQAGGSLRLSCAASGSTFLYYSMGWYTQAPGKERELVAVISWSGVSTYYADSVKGRFTISRDNAKNSVYLQMNSLKPEDTAVYYCNTGNHYIRTYGYWGQGTQVTVSW”, the “polyreactivity (PSR sort gate)” value was “low polyreactivity”. In the case of “QVQLVDSGGGLVQAGGSLRLSCAASGSTFQPYAMGWYRQAPGKERELVAAIRYSGGITYYADSVKGRFTISRDNAKNTVYLQMNSLKPEDTAVYYCAAYGFYGGDYWGQGTQVTVSS”, the “polyreactivity (PSR sort gate)” value is reported as “high polyreactivity”. In the case of “QVQLVDSGGGLVQAGGSLRLSCAASGSTFRGYDMGWYRQAPGKESELVAAITGSGTSTYYADSVKVRFTISRDNAKNTVYLQMNSLKPEDTAVYYCAARSRRPAERMYYWGQGTQVTVSS”, the “polyreactivity (PSR sort gate)” value is reported as “high polyreactivity”. For “QVQLVDSGGGLVQAGGSLRLSCAASGSTFSDSPMGGYRQAPGKERELVAGITGGGGTYYADSVKGRFTISRDNAKNTVYLQMNSLKPEDTAVYYCAAGYGRRIRYGSEYDYWGQGTQVTVSS”, the “polyreactivity (PSR sort gate)” value was “low polyreactivity”. With “QVQLVDSGGGLVQAGGSLRLSCAASGSTFSLYAMGWYRQAPGKEREMVASITWGGGSTYADSVKGRFTISRDNAKNTVYLQMNSLKPEDTAVYYCARKFRYRVLYDFAYDHWGLGTQVTVSS” the “polyreactivity (PSR sort gate)” value was “low polyreactivity”. With “QVQLVDSGGGLVQAGGSLRLSCAASGSTFSYYAMGWYRQAPGKERELVAAISYSGDSTYYADTVKGRFTISRDNAKNTVYLQMNSLKPEDSAVYYCNADSPFNGNLDRYFATLDDYWGQGTQVTVSS” the “polyreactivity (PSR sort gate)” value was “low polyreactivity”. With “QVQLVDSGGGLVQAGGSLRLSCAASGSTFVTYAMRWYRQAPVKERELVAAITEDGASTYYADSVKGRFTISRDNAKNTVYFQLNSLYPEDTAVYYCAADPTYWPVWYVLYDYWGQGTQVTVSS” the “polyreactivity (PSR sort gate)” value was “low polyreactivity”. In the case of “QVQLVDSGGGLVQAGGSLRLSCAASGSTFYYYAMGWYRQAPGKERELVAAITYSGGSTTYADSVKGRFTFSRDNAKNTVYLQMNSLKPEDTAVYYCAAYVYRYHRVAYEYWGQGTQVTVSS”, the “polyreactivity (PSR sort gate)” value is reported as “high polyreactivity”. For “QVQLVDSGGGLVQAGGSLRLSCAASGSTLNVYAMGWSRQAPGKERELVATIRRRGTSTYYADSVKGRFTISRDNAKNTVYLQMNSLKPEDTAVYYCAADTRTYRLSSGSGHWEYDYWGQGTQVTVSS”, the “polyreactivity (PSR sort gate)” value was “high polyreactivity”. In the case of “QVQLVDSGGGLVQAGGSLRLSCAASGSTVKYAMGWYRQAPGKERELVASIRRSGGSTYYADSVKGRFTISRDNAKITVYLKMNSLNPEDTAVYYCAAPLFRWMDYWGQGTQVTVSS”, the “polyreactivity (PSR sort gate)” value is reported as “high polyreactivity”. In the case of “QVQLVDSGGGLVQAGGSLRLSCAASGYIFSANAMGWYRQAPGKERELVAVISWNGDGTYYADSVKGRFTISRDNAKNTVYLQMNSLKAEDTAVYYCAALSYAYRSQSRRYGYRFDYWGQGTQVTVSS”, the “polyreactivity (PSR sort gate)” value is reported as “high polyreactivity”. For “QVQLVDSGGGLVQAGGSLRLSCAATGRIFAGYAMGGYRQAPGKERELVAAISDGGTTNYADSVKGRFTISRDNAKNTVYLQMNILKPEDTAVYYCAKDAAESYRYGYWGQGTQVTVSS”, the “polyreactivity (PSR sort gate)” value was “low polyreactivity”. With “QVQLVDSGGGLVQAGGSLRLSCAATGTIFAAYVMGWYRQAPGKERELVAAISYSGGGTYYADSVNGRFTISRDNAKNTVYIQMNSLKPEDTAVYYCAADFGVFKSARYYYWGQGTQVTVSS” the “polyreactivity (PSR sort gate)” value was “low polyreactivity”. In the case of “QVQLVDSGGGLVQAGGSLRLSCAAYGSTFRGYAMGWYRPAPGKERELVAAISWSGGITYYADSVKGRFTISRDNAKNTVYLQMNRLKPEDTAVYYCAAVWDQVSDRYMLEYCGQGTQVTVSS”, the “polyreactivity (PSR sort gate)” value is reported as “high polyreactivity”. In the case of “QVQLVDSGGGLVQAGGSLRLSCAPSGTTYPGYAMGWYRQAPGKERELFAAIDRGGSTSYADSVKGRFTISRDNAKITVYLQMNSLKPEDTAFYYCAAEASVVHKSSDYDSWGQCTQVTVSS”, the “polyreactivity (PSR sort gate)” value is reported as “low polyreactivity”. For “QVQLVDSGGGLVQAGGSLRLSCASSGFIFQYNTMGWSRQAPGKERELVAVITRTGSTNYADSVKGRFTISRDNANNTVYLQMNSLKPEDTAVYYCATSVYSRPRKPRYYYWGQGTQLTVSS”, the “polyreactivity (PSR sort gate)” value was “high polyreactivity”. In the case of “QVQLVDSGGGLVQAGGSLRLSCSASGFTFAWYAMGWYRQAPGKERELVAAISGSGGRTYYADSVMGRFTISRDNAKNTVYLQMNSLIPEDTAVYYCATRRRYEYYWGQGTQVTVSS”, the “polyreactivity (PSR sort gate)” value is reported as “high polyreactivity”. In the case of “QVQLVDSGGGLVQAGGSLRLSSAASGFTFVAYAMGGYRQAPGKERELVATITKGGGGTYYADSVKGRFTISRDNAKNTVYLQMNSLKPEDTAVYYCAADRQYRGRTRYVYAPLYYWGHGTQVTVSS”, the “polyreactivity (PSR sort gate)” value is reported as “high polyreactivity”. With “QVQLVDSGGGLVQAGGSLRLSSAASGYIFVVNAMGWYRPAPGKERELVAAIDWGGGSTYADSVKGRFTISRDNAKNTVYLQMNSLKPEDTAVYYCAADLWPYPTDYWGQGTQVTVSS” the “polyreactivity (PSR sort gate)” value was “low polyreactivity”.
